Source: the DeepSol protein solubility set

experiment: soluble on expression in E. coli; label from the status in PepcDB or PDB records

Sequence | soluble on expression in E. coli
MSVDMNSQGSDSNEEDYDPNCEEEEEEEEDDPGDIEDYYVGVASDVEQQGADAFDPEEYQFTCLTYKESEGALNEHMTSLASVLKVSHSVAKLILVNFHWQVSEILDRYKSNSAQLLVEARVQPNPSKHVPTSHPPHHCAVCMQFVRKENLLSLACQHQFCRSCWEQHCSVLVKDGVGVGVSCMAQDCPLRTPEDFVFPLLPNEELREKYRRYLFRDYVESHYQLQLCPGADCPMVIRVQEPRARRVQCNRCNEVFCFKCRQMYHAPTDCATIRKWLTKCADDSETANYISAHTKDCPKCNICIEKNGGCNHMQCSKCKHDFCWMCLGDWKTHGSEYYECSRYKENPDIVNQSQQAQAREALKKYLFYFERWENHNKSLQLEAQTYQRIHEKIQERVMNNLGTWIDWQYLQNAAKLLAKCRYTLQYTYPYAYYMESGPRKKLFEYQQAQLEAEIENLSWKVERADSYDRGDLENQMHIAEQRRRTLLKDFHDT | soluble
MGHHHHHHMPEINTNHLDKQQVQLLAEMCILIDENDNKIGAETKKNCHLNENIEKGLLHRAFSVFLFNTENKLLLQQRSDAKITFPGCFTNTCCSHPLSNPAELEESDALGVRRAAQRRLKAELGIPLEEVPPEEINYLTRIHYKAQSDGIWGEHEIDYILLVRMNVTLNPDPNEIKSYCYVSKEELKELLKKAASGEIKITPWFKIIAATFLFKWWDNLNHLNQFVDHEKIYRM | soluble
MASVASCDSRPSSDELPGDPSSQEEDEDYDFEDRVSDSGSYSSASSDYDDLEPEWLDSVQKNGELFYLELSEDEEESLLPETPTVNHVRFSENEIIIEDDYKERKKYEPKLKQFTKILRRKRLLPKRCNKKNSNDNGPVSILKHQSNQKTGVIVQQRYKDVNVYVNPKKLTVIKAKEQLKLLEVLVGIIHQTKWSWRRTGKQGDGERLVVHGLLPGGSAMKSGQVLIGDVLVAVNDVDVTTENIERVLSCIPGPMQVKLTFENAYDVKRETSHPRQKKTQSNTSDLVKLLWGEEVEGIQQSGLNTPHIIMYLTLQLDSETSKEEQEILYHYPMSEASQKLKSVRGIFLTLCDMLENVTGTQVTSSSLLLNGKQIHVAYWKESDKLLLIGLPAEEIELPSSAHTHGERN | soluble
MSTPDGDEKEQCFHRAIAKTSIYLDREPGNPELTVWLAINKASLAGAQGGFGALSLAKEAKSLLEGVIATSPQTLDGSAYTSLGSLYYKVPGWPIGFGDDDKAEEMLKKALEINPKGIDPNYFYGDFLAEEGRDKEAKVYLTRAMQASPRPLEHHHHHH | not soluble
MQAQNMTEASTVHVEHDPVRQRFNVDTDGHRAELAYRREGEIMTITHTQVPDAVSGRGIAAALVEDALAFARQHGLKVVPACRYADAYVRRHPRYQDLLAMAGDPLEHHHHHH | not soluble
GPGSMLLSVPEAHTEVITSLQFSPHHASVLCSTSGDDTAALWDLRNPSDSCNIARLTHHREPVNHALFIEESEPCLLTASDDRTIAYWDVREISQPVAVIRGFGDGINKMLRLPVSRRSGNACVNGGACCLIVSACDDGAVYIHDVALCGDTRRQSGMPVEGAGDTFSSTGNLVDRFMASTSTVNDLVLSPNPNLLLTASEDCAIRLWDIGPIFGGQRTQDERLVTSFDEFENPVNHIAVINSPRVTQFVQDEGQGGHSGCWLYAACSEFIFAVDLDPVSGALGEGARTLTGHQDYVRGLEFVGDDTLLTVSDDSTVIEWSLRTSNPVRQVKLHEGLVMASAVSAARDVLATGTDGGEMRVWRLPFLTE | not soluble
MKLTPNFYRDRVCLNVLAGSKDNAREIYAAAEGHVLVGVLSKNYPDVASAVADMREYAALIDNALSVGLGAGDPNQSAMVSEISRQVQPQHVNQVFTGVGTSRALLGQNETVVNGLVSPTGTPGLVKISTGPLSSRAPDGIVPIETAIALLKDMGGSSVKYFPMGGLTCRDEYKAVAEPAPAMISGWNRRAVSIWKTSPRFCTSPLMQV | not soluble
MGSDKIHHHHHHMATTTIYEDLSAAYDLENMQALMATKDLLGAMLRIHFILEAFLDIWCNKITNCEDFFDLKRFTSFDTKLEISKKLGLPSELAVVFKLFNKIRNKFAHRPNYVICSNDLDNIHQAINQINTHDNHSKFTMIVFNEREIRWDTPDIPIIDSLLLNYFTLSQKVNDVFANEFSKRNISFTIQGQQA | not soluble
MAHHHHHHSLIDCRYYQQNECRSCQWLEIPCSQQLTEKQYHLKQQLISINYDEAQWVAPFQSNQQGFRNKAKMVVSGSVERPILGILKNPNDPQSAIDLCDCPLYPTHFSAIFSILKDFIGRAGLVPYNIAKQKGELKYILLTESIATEKLMLRFVLRTENKLPLIRRELPKLLEKLPHLEVISINLQPQHAAILEGEQEIFLTEQQFLPENFNGIPLFIRPRGFFQTNPKVAAGLYATAQQWVAEFPIYNLWDLFCGVGGFGLHCAKALQEKWGKPIKLTGIEISSSAILAASHSAKILGLEHVNFQSLDAASVIENKNENKPDLVIVNPPRRGIGKELSEFLNQIQPHFILYSSCNAMTMGKDLQHLTCYKPLKIQLFDMFPQTSHYEVLVLLEREG | not soluble
MAMNGTITTWFKDKGFGFIKDENGDNRYFHVIKVANPDLIKKDAAVTFEPTTNNKGLSAYAVKVVPESKYIYIAGERLKLTSIKSYLVYSEEVPADTRIDKENTVLSVGVLMNSIRPKSVAEPDEIRSLKKLAITTFQGTTLIFSEDEIDVDATVKLLKVLEHHHHHH | soluble
MSPNCETPTSSLSTSLRFVPSLACIAEEEPKVIGIRKITVPGSSKPFQVQIPLYDLNIYAPEPPKQPLPDSYQRLLAEMDQYIGGHQNSEMYKEMAKNLRHKVAVEQAENNRLSKSNFTNRDWYWYAEQTRAFVDEPVINSTSKTQESNISECLEETSSSAKSTVMKDEDLFDLSADF | not soluble
HRIDTKTAQKDKFGAGKNGFTRGNPQTGTPATDLDDDYFDMLQEELCSVVEASGASLEKGRHDQLLTALRALLLSRKNPFGDIKSDGTVQTALENLGLGEGAKLNAATATLGRTGFIAIPVMIGGIEQSVIIQWGWNAAKASASGGDGNTVVFPVAFNNACVAVVANYDNVSAPINAVATGGYTTTSFLLRCAAQTGSYYYNWIAIGY | not soluble
MGSDKIHHHHHHMIIKNAKIYGDSLQDIEIKEGKITNIDSNLQGEEILDAKGMTLLPSFVDLCVSLKNDKFSLANLELLENECLKGGISSIVLRDCMDFDEESFALFLQNLAQRKMQIFSSVRVKDANGKLKNLATLLNKGACALELDSSLDANTLKVSSQYAFMKDSPIFVRCYDKDFDDNGVMNDCEMSFELGLIGMSKIAETSQIAKMKELAKFYKNKVIFDLLSLKDSLVLLDEKDLKLVSIHHLIKDDSACEDFNTAAKLMPPLRSKEDVLALREVLKEGKISFLTSLHSAKSISLKDLAFDEAAFGIHSVCEFISLCYTFLIKEGFLNWQELCRFTSKNPSEFLGLNSGVIEVGKEANLVLFDENEEIFAPKSSLYSEDKLFGKIKMHIIKGKNILEK | not soluble
MNKVIKMLVVTLAFLLVLAGCSGNSNKQSSDNKDKETTSIKHAMGTTEIKGKPKRVVTLYQGATDVAVSLGVKPVGAVESWTQKPKFEYIKNDLKDTKIVGQEPAPNLEEISKLKPDLIVASKVRNEKVYDQLSKIAPTVSTDTVFKFKDTTKLMGKALGKEKEAEDLLKKYDDKVAAFQKDAKAKYKDAWPLKASVVNFRADHTRIYAGGYAGEILNDLGFKRNKDLQKQVDNGKDIIQLTSKESIPLMNADHIFVVKSDPNAKDAALVKKTESEWTSSKEWKNLDAVKNNQVSDDLDEITWNLAGGYKSSLKLIDDLYEKLNIEKQSK | not soluble
MGSDKIHHHHHHMKSPCILLIIVCTLSLTGCASTKQADSDSSLGKAQQTLDSLYQHYSAKDSYLLRENYPFNEQYKVTYLASENQTNMPNQFSYLWPYSGTFSAVNSLLEATHDKKYQQLLEKQVLPGLEEYFDTERTPIAYSSYIRTAPTSDRFYDDNIWVGIDFIDIYQITKEKKYLDKAQLIWNFIESGTDSLLGDGIYWCEQKKESKNTCSNAPGSVFALKLFKATNDSLYFKRGKELYKWTQKNLQDSTDYLYFDNIRLDGKIGKAKFAYNSGQMMQSAALLYQLTKNPDYLKDAQSIAKECYNYFFTDFTTDTGESLKMLKQGNIWFTAVMLRGFIELYQLDQNKTFIDAFNQCLSYAWDNARDENGLFSTDLTGNNNNEKKWLLTQAAMVEMYSRLATIQ | not soluble
MSLKNIVFDFGGVIVDIDRDKAVQAFIKLGLADADTRLDKYHQTGIFQELEEGKLSADEFRKQLGDLCGRELTMEETKQAWLGFFNEVDLRKLDYILGLRKSYHVYLLSNTNPFVMSWACSPEFSSEGKPLNDYCDKLYLSYQLGHTKPAPEIFDFMIKDSHVIPSETLFVDDGSSNIHIGKELGFETFQPENGADWRQELTVILNSEGHHHHHH | soluble
MGSDKIHHHHHHMTEWVPVIYGIGLDAAGRCQHYHLETDIAALWCRRCQHYYACYRCHDTLCQHTFVASAPTDLAVMCGACRYRMTVDRYHEGQCPHCHRPFNPRCRLHDQVYFEK | not soluble
MAHHHHHHMGTLEAQTQGPGSMVNWNALRSKAIEVSRHAYAPYSGFPVGAAALVDDGRTVTGCNVENVSYGLGLCAECAVVCALHSGGGGRLVALSCVGPDGGVLMPCGRCRQVLLEHGGPELLIDHAHGPRPLRELLPDAFGPDDLGRR | soluble
GHHHHHHAIAENLYFQSKDVPGFLQQSQSSGPGQPAVWHRLEELYTKKLWHQLTLQVLDFVQDPCFAQGDGLIKLYENFISEFEHRVNPLSLVEIILHVVRQMTDPNVALTFLEKTREKVKSSDEAVILCKTAIGALKLNIGDLQVTKETIEDVEEMLNNLPGVTSVHSRFYDLSSKYYQTIGNHASYYKDALRFLGCVDIKDLPVSEQQERAFTLGLAGLLGEGVFNFGELLMHPVLESLRNTDRQWLIDTLYAFNSGNVERFQTLKTAWGQQPDLAANEAQLLRKIQLLCLMEMTFTRPANHRQLTFEEIAKSAKITVNEVELLVMKALSVGLVKGSIDEVDKRVHMTWVQPRVLDLQQIKGMKDRLEFWCTDVKSMEMLVEHQAHDILT | soluble
MFKKFLSLCIVSTFSVAATSALAQPNQLVGKSSPQQLAPLMKAASGKGIKNQYIVVLKQPTTIMSNDLQAFQQFTQRSVNALANKHALEIKNVFDSALSGFSAELTAEQLQALRADPNVDYIEQNQIITVNPIISASANAAQDNVTWGIDRIDQRDLPLNRSYNYNYDGSGVTAYVIDTGIAFNHPEFGGRAKSGYDFIDNDNDASDCQGHGTHVAGTIGGAQYGVAKNVNLVGVRVLGCDGSGSTEAIARGIDWVAQNASGPSVANLSLGGGISQAMDQAVARLVQRGVTAVIAAGNDNKDACQVSPAREPSGITVGSTTNNDGRSNFSNWGNCVQIFAPGSDVTSASHKGGTTTMSGTSMASPHVAGVAALYLQENKNLSPNQIKTLLSDRSTKGKVSDTQGTPNKLLYSLTDNNTTPNPEPNPQPEPQPQPDSQLTNGKVVTGISGKQGELKKFYIDVPAGRRLSIETNGGTGNLDLYVRLGIEPEPFAWDCASYRNGNNEVCTFPNTREGRHFITLYGTTEFNNVSLVARY | not soluble
GHMENKVINFKKIIDSRGSLVAIEENKNIPFSIKRVYYIFDTKGEEPRGFHANKKLEQVLVCLNGSCRVILDDGNIIQEITLDSPAVGLYVGPAVWHEMHDFSSDCVMMVLASDYYDETDYIRQYDNFKKYIAKINLEKEG | soluble
MMLNNFETDSIFTPEQVLENRGRVAIFIDGSNLFYAALQLGIEIDYTKLLCRLTGGSRLLRSFFYTGVDRTNEKQQGFLLWMRRNGYRVIAKDLVQLPDGSKKANLDVEIAVDMMALVDSYDTAVLVSGDGDLAYAVNSVSYRGVRVEVVSLRSMTSDSLINVSDRYIDLEAIKEDIQKTPRQSYPYRPLSGIGFLEDPRTSDGHLEIQE | not soluble
VSGAHTDVRPELRKLAQAILDGIDPAVRVAAAMASGGGPGTGKCQQVWCPLCALAALVTGEQHPLLTVIADHSLALLEVIRAIVDDIDRSAKPPPEGPPGGGQTGASGGENTNGEGSMKSHYQAIPVTIEE | not soluble
